Measurements published in CN114349850A (JIANG QINGHUA; WANG PINGPING; STEP HIGH; ZHAO DONGMING, dated 2022).

Key:
SARS-CoV-2 Spike蛋白 = SARS-CoV-2 Spike蛋白 (SARS-CoV-2, UniProt P0DTC2 16-1213); assay: cell-based or functional assay
SARS-CoV-2 Spike RBD区域蛋白 = SARS-CoV-2 Spike RBD区域蛋白 (SARS-CoV-2, UniProt P0DTC2 319-541); assay: competitive ELISA, GD1-69 against ACE2 for SARS-CoV-2 S protein / RBD

B1: GD1-69 (antibody, human IgG1, kappa, V domains shown)
VH: EVQLLESGGGLVQPGGSLRLSCAASGFTFSNYAMSWVRQAPGKGLEWVSVIYSGVSSTYYEDSVKGRFTISRDNSKNTLYLQMNSLRAEDTAVYYCAKDPSYDTRGYIFDYWGQGTLVTVSS
VL: DIVMTQSPATLSVSPGERATLSCRASQSVSTNLAWYQQKPGQAPRLLIYGTSTRATGVPARFSGSGSGTEFTLTISSLQSEDFAIYYCLQYNNWRTFGQGTKLEIKR
notes: also called 目标抗体; GD1-69抗体
噬斑减少中和测试 (活SARS-CoV-2病毒, Vero E6细胞) IC50 (SARS-CoV-2 Spike蛋白): 0.44 µg/mL
基于假病毒的中和试验 IC50 (SARS-CoV-2 Spike蛋白): 1.77 µg/mL
IC50 (SARS-CoV-2 Spike RBD区域蛋白): 0.26 µg/mL
